Three molecules from patent publication US9493781B2, “Synthetic brassica-derived chloroplast transit peptides” (DOW AGROSCIENCES LLC, priority 2012, dated 2016) can be followed below.

Holding throughout (format): in vivo, Arabidopsis thaliana
Series [1] concerns Arabidopsis. Nature of the series: dgt-31, dgt-32, dgt-33 v1 transformed T1 Arabidopsis response to glyphosate, % visual injury 2 WAT. As to the method: Selection of transformed plants. Freshly harvested T1 seed [dgt-31, dgt-32, and dgt-33 v1 gene] were allowed to dry at room temperature and shipped to Indianapolis for testing. T1 seed was sown in 26.5×51-cm germination trays (T.O. Plastics Inc., Clearwater, Minn.), each receiving a 200 mg aliquots of stratified T1 seed (˜10,000 seed) that had previously been suspended in 40 mL of 0.1% agarose solution and stored at 4° C. for 2 days to complete dormancy requirements and ensure synchronous seed germination.
Sunshine Mix LP5 (Sun Gro Horticulture Inc., Bellevue, Wash.) was covered with fine vermiculite and subirrigated with Hoagland's solution until wet, then allowed to gravity drain. Each 40 mL aliquot of stratified seed was sown evenly onto the vermiculite with a pipette and covered with humidity domes (KORD™ Products, Bramalea, Ontario, Canada) for 4-5 days. Domes were removed once plants had germinated prior to initial transformant selection using glufosinate postemergence spray (selecting for the co-transformed dsm-2 gene).
Six days after planting (DAP) and again 10 DAP, T1 plants (cotyledon and 2-4-lf stage, respectively) were sprayed with a 0.1% solution of IGNITE™ herbicide (280 g ai/L glufosinate, Bayer Crop Sciences, Kansas City, Mo.) at a spray volume of 10 mL/tray (703 L/ha) using a DeVilbiss™ compressed air spray tip to deliver an effective rate of 200 g ae/ha glufosinate per application. Survivors (plants actively growing) were identified 4-7 days after the final spraying. Surviving plants were transplanted individually into 3-inch pots prepared with potting media (Metro Mix 360™). Plants reared in the greenhouse at least 1 day prior to tissue sampling for copy number analyses.
T1 plants were sampled and copy number analysis for the dgt-31, dgt-32, and dgt-33 v1 gene were completed. T1 plants were then assigned to various rates of glyphosate so that a range of copies were among each rate. For Arabidopsis, 26.25 g ae/ha glyphosate is an effective dose to distinguish sensitive plants from ones with meaningful levels of resistance. Elevated rates were applied to determine relative levels of resistance (105, 420, 1680, or 3360 g ae/ha).
All glyphosate herbicide applications were made by track sprayer in a 187 L/ha spray volume. Glyphosate used was of the commercial Durango dimethylamine salt formulation (480 g ae/L, Dow AgroSciences, LLC).
T1 plants selected above were subsequently transplanted to individual pots and sprayed with various rates of commercial glyphosate. Table 16 compares the response of dgt-31, dgt-32, and dgt-33 v1 and control genes to impart glyphosate resistance to Arabidopsis T1 transformants. Response is presented in terms of % visual injury 2 WAT. […] An arithmetic mean and standard deviation is presented for each treatment. […]

In series [2] the test system is Arabidopsis. Nature of the series: dgt-28, dgt-32, dgt-33, dgt-3, dgt-7 transformed Arabidopsis (T1, T2, T3) response to postemergence glyphosate, % visual injury. The note with it: for % Injury Ave / % Injury Range (%) / No. plants with 20-40% injury / No. plants with <20% injury / No. plants with >40% injury: 14 days after application. An outline of the steps:
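Transgenic T1, T2 and T3 Arabidopsis (low-copy events for T2/T3, hemizygous and homozygous in T2) sprayed postemergence with glyphosate at 105, 420, 1,680 or 3,360 g ae/ha. Visual injury scored 2 weeks after treatment as mean, SD and range. Non-transformed Columbia served as sensitive control.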

The subject of series [3] is Arabidopsis. The experiment in a line: Heritability progeny test of T1 families (T2 plants) with glufosinate, Arabidopsis. The note with it: progeny test of 100 T2 plants, glufosinate 200 g ae/ha. An outline of the steps:
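Self-pollinated T1 Arabidopsis events gave T2 seed; 100 random T2 siblings were sprayed with glufosinate at 200 g ae/ha and scored resistant/sensitive, segregation tested by Chi square against 3:1.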

Setting [4] is: Table 8, T1 Arabidopsis, 105 g ae/ha glyphosate.
[5] abbreviates: Table 8, T1 Arabidopsis, 420 g ae/ha glyphosate.
Setting [6] is: Table 8, T1 Arabidopsis, 1680 g ae/ha glyphosate.
The mark [7] stands for this setting: Table 8, T1 Arabidopsis, 3360 g ae/ha glyphosate.
Setting [8] is: Table 10, T1 Arabidopsis, 1,680 g ae/ha glyphosate.
The mark [9] stands for this setting: Table 12, T2 Arabidopsis, 1 copy, 420 g ae/ha glyphosate.
Setting [10] is: Table 12, T2 Arabidopsis, 1 copy, 840 g ae/ha glyphosate.
The mark [11] stands for this setting: Table 12, T2 Arabidopsis, 1 copy, 1680 g ae/ha glyphosate.
The mark [12] stands for this setting: Table 12, T2 Arabidopsis, 1 copy, 3360 g ae/ha glyphosate.

B1: DGT-31 (v1): Streptomyces EPSP synthase enzyme (GENBANK YP_004922608.1) (protein)
chain: MTVIDIPGSKSVTARALFLAAAADGTTTLLRPLHSDDTEGFTEGLTRLGYAVVREPDRWHIEGRPSGPAAADAEVHCRDGATTARFLPTLAAAAASGTYRFDASAQMRRRPLAPLTEALRTLGVDLRHDGAEGHHPLTIQASGVKGGGLTLDAGESSQYLTALLMLGPLTAEGLRIEVTELVSAPYVEITLAMMRGFGVEVVREGNTFTVPPGGYRATTYAIEPDASTASYFFAAAALTGREVTVPGLGTGALQGDLRFTEVLRRMDADVRTTSDSTTVRSDGRLAGLTVNMRDISDTMPTLAAIAPYASSPVRIEDVANTRVKECDRLEACAQNLRSMGITVRTGPDWIEIHPGTPRPTEIATHGDHRIVMSFAVAGLRTPGMSYDDPGCVRKTFPRFHEEFAAFVERSSAGE
modifications: DGT-31 v3 nucleotide
Take B1: the “Herbicide tolerance” value in the series with Arabidopsis [1] (with transit peptide TraP8) is given as “improved tolerance”; with Arabidopsis [1] (with transit peptide TraP23, compared to the negative control) it was “slight herbicide tolerance”.

B2: DGT-32: Streptomyces EPSP synthase enzyme (GENBANK ZP_04696613) (protein, listed as Streptomyces roseosporus)
chain: MTVIEIPGSKSVTARALFLAAAADGTTTLLRPLRSDDTEGFAEGLRNLGYAVEQEADRWRVQGRPAGPAATEADVYCRDGATTARFLPTLAAAAASGTYRFDASAQMRRRPLAPLTRALTALGVDLRHEGADGHHPLTVRAAGIEGGELTLDAGESSQYLTALLMLGPLTTKGLRIEVTELVSAPYVEITLAMMRDFGVEVEREGNTFTVPSPSSRLRSNRGGPIGGYRATTYAVEPDASTASYFFAAAALTGREVTVPGLGTGALQGDLRFVDVLREMGAEVSVGPDATTVRSTGRLRGITVNMRDISDTMPTLAAIAPYADGPVVIEDVANTRVKECDRLEACAENLRAMGITVHTGPDRIEIHPGTPKPTGIATHGDHRIVMSFAVAGLRTPGLTYDDPGCVRKTFPRFHEVFADFAHDLEGR
B2: the “Glyphosate tolerance” value in the series with Arabidopsis [2] (T1 Arabidopsis) was “significant tolerance to glyphosate”. For the same molecule, the “Herbicide tolerance” value in the series with Arabidopsis [1] (with TraP8 and with TraP14 / TraP24 respectively) was “robust tolerance to glyphosate”.

B3: pDAB105534: TraP13 v2 -- dgt-28 v5: binary construct TraP13 v2:dgt-28 v5 (SEQ ID NO:37) (nucleic acid)
DNA: ATGGCACAAGTTAGCAGAATCTGTAATGGTGTGCAGAACCCATCTCTTATCTCCAATCTCTCAAAGTCCAGCCAACGTAAGTCTCCCCTCAGCGTGTCTCTGAAAACTCAGCAGCCCAGAGCTTCTTCATGGGGTTTGAAGAAATCTGGAACGATGCTTAACGGCTCAGTCATTCGTCCGGTTAAGGTGACAGCCTCCGTCTCCGCTGCTAGAGGGATGCCAGCCTTGTCTTTACCTGGATCAAAGAGTATCACAGCTAGGGCACTCTTTCTTGCTGCTGCTGCTGATGGGGTTACTACTTTGGTGAGGCCATTGAGAAGTGACGACACAGAAGGATTCGCTGAGGGGTTAGTTCGTTTAGGCTATCGTGTAGGGAGGACACCCGATACTTGGCAAGTCGATGGCAGACCACAAGGACCAGCAGTGGCTGAGGCTGACGTCTACTGTAGAGACGGAGCAACCACCGCTAGATTCTTGCCAACCTTAGCAGCTGCTGGTCACGGAACATACAGATTTGATGCTTCACCACAGATGAGGAGACGTCCTCTTTTGCCCTTAAGCAGAGCCTTGAGGGATTTGGGTGTCGATCTTAGACACGAAGAAGCTGAAGGTCATCACCCTCTGACTGTCCGTGCTGCTGGGGTTGAAGGAGGAGAGGTTACTTTGGATGCTGGTCAGTCAAGTCAGTATCTCACTGCCTTGTTGCTCCTTGGTCCCCTTACAAGACAAGGACTGAGGATAAGGGTTACTGATTTGGTGTCAGCACCATACGTGGAGATTACGCTTGCAATGATGAGGGCTTTCGGAGTTGAAGTGGCAAGGGAGGGAGATGTGTTCGTTGTTCCACCTGGTGGATATCGTGCAACTACGTATGCTATAGAACCCGACGCAAGTACTGCTTCTTACTTCTTCGCAGCTGCTGCTTTGACTCCTGGAGCTGAAGTGACTGTACCTGGGTTAGGCACGGGAGCACTTCAAGGAGATTTGGGATTTGTAGATGTCTTAAGGAGAATGGGAGCCGAGGTGTCCGTAGGAGCTGATGCAACCACTGTTAGAGGAACTGGTGAATTGCGTGGCCTTACAGCCAACATGAGAGACATAAGTGATACGATGCCGACCCTCGCTGCAATAGCACCCTTTGCTAGTGCTCCAGTTAGAATCGAGGATGTTGCCAACACTCGTGTCAAAGAATGTGACAGACTTGAGGCTTGTGCAGAGAACCTTAGGAGGTTGGGAGTAAGGGTTGCAACGGGTCCGGACTGGATTGAGATACACCCTGGTCCAGCTACTGGTGCTCAAGTCACAAGCTATGGTGATCACAGAATTGTGATGTCATTTGCAGTGACTGGACTTCGTGTGCCTGGGATCAGCTTCGACGACCCTGGCTGTGTTCGTAAGACTTTTCCTGGGTTTCACGAGGCTTTCGCAGAATTGAGGCGTGGCATTGGGAGCTGA
modifications: In-frame fusion of dgt-28 v5 and TraP13 v2
For the molecule B3, the “% Injury Ave” value with Arabidopsis [2] (setting [4]) is 14.0%; in the series on Arabidopsis [2] (setting [5]), 17.6%; in the series on Arabidopsis [2] (setting [6]), 39.0%; in the series on Arabidopsis [2] (setting [7]), 31.2%; in the series on Arabidopsis [2] (setting [8]) it was 39.0%; in the series with Arabidopsis [2] (setting [9]) it was 5.0%. For the same molecule, the “% Injury Ave” value in the series on Arabidopsis [2] (setting [10]) turned out to be 5.0%; in the series on Arabidopsis [2] (setting [11]) it was 10.0%; in the series with Arabidopsis [2] (setting [12]), 15.0%. The “% Injury Range (%)” value in the series with Arabidopsis [2] (setting [4]) is listed as 0-50%; in the series with Arabidopsis [2] (setting [5]), 0-50%; in the series with Arabidopsis [2] (setting [6]), 5-100%; in the series with Arabidopsis [2] (setting [7]), 18-70%; with Arabidopsis [2] (setting [8]), 5-100%; in the series with Arabidopsis [2] (setting [9]), 0-20%. For the same molecule, the “% Injury Range (%)” value in the series with Arabidopsis [2] (setting [10]) was 0-20%; with Arabidopsis [2] (setting [11]) it was 0-20%; in the series with Arabidopsis [2] (setting [12]), 5-30%. Also, the “No. plants with 20-40% injury” value worked out at 0 with Arabidopsis [2] (setting [4]); 1 in the series with Arabidopsis [2] (setting [5]); 0 with Arabidopsis [2] (setting [6]); 2 in the series on Arabidopsis [2] (setting [7]); 0 with Arabidopsis [2] (setting [8]); 1 with Arabidopsis [2] (setting [9]). Moreover, the entries for the “No. plants with 20-40% injury” value in the series on Arabidopsis [2] (setting [10]), with Arabidopsis [2] (setting [11]) and with Arabidopsis [2] (setting [12]) were 1, 2 and 2, respectively. The “No. plants with <20% injury” value is on record as 4 in the series with Arabidopsis [2] (setting [4]); 3 with Arabidopsis [2] (setting [5]); 3 with Arabidopsis [2] (setting [6]); 2 in the series on Arabidopsis [2] (setting [7]); 3 in the series with Arabidopsis [2] (setting [8]); 3 with Arabidopsis [2] (setting [9]). Besides, the “No. plants with <20% injury” value with Arabidopsis [2] (setting [10]) came to 3; in the series on Arabidopsis [2] (setting [11]) it was 2; with Arabidopsis [2] (setting [12]), 2. The “No. plants with >40% injury” value is reported as 1 with Arabidopsis [2] (setting [4]); 1 in the series on Arabidopsis [2] (setting [5]); 2 with Arabidopsis [2] (setting [6]); 1 in the series on Arabidopsis [2] (setting [7]); 2 with Arabidopsis [2] (setting [8]); 0 in the series with Arabidopsis [2] (setting [9]). Moreover, the “No. plants with >40% injury” value with Arabidopsis [2] (setting [10]), in the series on Arabidopsis [2] (setting [11]) and in the series on Arabidopsis [2] (setting [12]) was 0 each time. In addition, the “T1 Families Tested Segregating at 1 Locus (%)” value in the series with Arabidopsis [3] is 75%.
